In assay [1] the target is HLA-DR DRB1*1501 (human). The assay can be described thus: radiolabeled-peptide inhibition, purified HLA-DR.
The target in assay [2] is HLA-DR DRB1*0301 (human). Description: radioligand inhibition, purified HLA-DR.
In assay [3] the target is HLA-DR DRB1*1501 (human). The assay can be described thus: radioligand inhibition, purified HLA-DR.
Assay [4] deals with HLA-DR DRB1*1501 (human). Description: radioligand inhibition, purified HLA-DR. The source holds these as a separate data set.
Assay [5] addresses HLA-DR DRB1*0101 (human). The assay can be described thus: radiolabeled-peptide inhibition, purified HLA-DR.
Assay [6] deals with HLA-DR DRB1*1501 (human). Description: radioligand inhibition, purified HLA-DR. The source holds these as a separate data set.
The target of assay [7] is HLA-DR DRB1*0401 (human). Description: radioligand inhibition, purified HLA-DR.
Assay [8] deals with HLA-DR DRB1*0701 (human). The assay can be described thus: radioligand inhibition, purified HLA-DR.
The target of another assay is HLA-DR DRB3*0101 (human). Description: radioligand inhibition, purified HLA-DR.
The target of assay [9] is HLA-DR DRB1*0301 (human). Description: radioligand inhibition, purified HLA-DR. This is another data set of the same source.
The target in assay [10] is HLA-DR DRB1*1302 (human). The assay can be described thus: radioligand inhibition, purified HLA-DR.
The target of assay [11] is HLA-DR DRB1*0101 (human). Description: radioligand inhibition, purified HLA-DR.
In assay [12] the target is HLA-DR DRB1*0101 (human). The assay can be described thus: radioligand inhibition, purified HLA-DR. This is another data set of the same source.
Assay [13] concerns the target HLA-DR DRB1*0701 (human). The assay can be described thus: radioligand inhibition, purified HLA-DR. This is another data set of the same source.
Assay [14] addresses HLA-DR DRB1*1302 (human). The assay can be described thus: radioligand inhibition, purified HLA-DR. The source holds these as a separate data set.
The target in assay [15] is HLA-DR DRB1*0401 (human). Description: radioligand inhibition, purified HLA-DR. This is another data set of the same source.
Assay [16] concerns the target HLA-DR DRB1*0401 (human). Description: radiolabeled-peptide inhibition, purified HLA-DR.
The target of assay [17] is HLA-DR DRB1*0701 (human). Description: radiolabeled-peptide inhibition, purified HLA-DR.

KIPVAIKVLRENTSP [1622.03] showed an IC50 with HLA-DR DRB1*1501 [1] of 0.611 µM.

On to CAELVREPGCGCCSV [Peptide 9019.0015], for which, in the assay with HLA-DR DRB1*0301 [2], the IC50 is 12.3 µM.

ICELHCPALVTYNTD [Her2/neu.263] showed a concentration for half-maximal inhibition (IC50) in the assay with HLA-DR DRB1*1501 [3] of 0.748 µM. SPGLSAGATVGIMIG [CEA.680 peptide 9019.0144] displayed a 50% inhibitory concentration (IC50) with HLA-DR DRB1*1501 [4] of 3.93 µM. Regarding GMSYLEDVRLVHRDL [9019.0002], inhibition in the assay with HLA-DR DRB1*1501 [1] was half-maximal at 0.567 µM (IC50). PSGVKPDLSYMPIWK [9019.0065] came in with an IC50 with HLA-DR DRB1*0101 [5] of 1.03 µM. PESFDGDPASNTAPL [9019.0048] displayed an IC50 with HLA-DR DRB1*1501 [1] of 0.805 µM. Same read-out and setting: to ISAVVGILLVVVLGV [9019.0067] belongs 6 µM. Regarding APTIRGDPECHLFYN [Peptide 9019.0022], the IC50 with HLA-DR DRB1*1501 [6] is 3.67 µM. SSYLSGANLNLSCHS [CEA.603 peptide 9012.0137] displayed a concentration for half-maximal inhibition (IC50) in the assay with HLA-DR DRB1*1501 [4] of 13 µM.

For INGIPQQHTQVLFIA [CEA.629 peptide 9019.0139], the 50% inhibitory concentration (IC50) with HLA-DR DRB1*1501 [4] came to 8.29 µM. For RPRFRELVSEFSRMA [Peptide 9019.0095], the IC50 with HLA-DR DRB1*1501 [6] was 0.348 µM. On to SEGGLVENHVDSTMN [Peptide 9019.0183], for which the values for the IC50 in the assay with HLA-DR DRB1*0401 [7] and with HLA-DR DRB1*0701 [8] were 1.2 µM and 4.62 µM, respectively.

Regarding FRELVSEFSRMARDP [Peptide 9019.0096], the IC50 in the assay with HLA-DR DRB3*0101 amounted to 4.54 µM.

With EELLQMELLLVNKLK [Cyclin D1.135], the half-inhibitory concentration (IC50) with HLA-DR DRB1*0301 [9] came to 3.39 µM. In the case of ELPLQALVMGEGTCE [Peptide 9019.0182], the concentration for half-maximal inhibition (IC50) with HLA-DR DRB1*1302 [10] stood at 9.17 µM; with HLA-DR DRB1*0401 [7], 6.78 µM; with HLA-DR DRB1*0101 [11] it was 1.5 µM; with HLA-DR DRB1*0701 [8] it was 15.6 µM. Regarding LQGLPREYVNARHCL [9019.0064], in the assay with HLA-DR DRB1*1501 [1], the half-inhibitory concentration (IC50) came out at 0.423 µM. TTPVTGASPGGLREL [Her2/neu.126] had an IC50 with HLA-DR DRB1*1501 [3] of 17.1 µM. Consider LQRYSEDPTVPLPSE [Peptide 9019.0099], for which, in the assay with HLA-DR DRB1*1501 [6], the IC50 turned out to be 5.31 µM.

CYGLGMEHLREVRAV [9019.0044] showed an IC50 in the assay with HLA-DR DRB1*1501 [1] of 0.69 µM. Take LPRVGCPALPLPPPP [Peptide 9919.0173]: the IC50 was determined as 8.94 µM in the assay with HLA-DR DRB1*1302 [10], 6.54 µM in the assay with HLA-DR DRB1*0401 [7] and 1.91 µM in the assay with HLA-DR DRB1*0101 [11]. In turn, QYSWRINGIPQQHTQ [CEA.624 peptide 9019.0138] had a half-inhibitory concentration (IC50) with HLA-DR DRB1*1501 [4] of 2.07 µM.

Consider SITVSASGTSPGLSA [CEA.671 peptide 9919.0143], for which the 50% inhibitory concentration (IC50) with HLA-DR DRB1*1501 [4] was 3.11 µM. Still for that read-out and setting: to RWCIPWQRLLLTASL [CEA.10 peptide 9019.0104] belongs 0.061 µM. For GDPLNNTTPVTGASP [Her2/neu.120], the IC50 with HLA-DR DRB1*0101 [12] is 6.36 µM; with HLA-DR DRB1*0701 [13], 13.2 µM; with HLA-DR DRB1*1302 [14], 1.03 µM; with HLA-DR DRB1*0401 [15], 7.46 µM. KLCIYTDNSIRPEEL [Cyclin D1.123] showed a concentration for half-maximal inhibition (IC50) with HLA-DR DRB1*1501 [3] of 0.025 µM.

For the molecule PERLAACGPPPVAPP [Peptide 9019.0179], the IC50 in the assay with HLA-DR DRB1*1501 [6] is 4.05 µM. In turn, MRKIVATWMLEVCEE [Cyclin D1.56] yielded an IC50 with HLA-DR DRB1*1501 [3] of 0.087 µM. As for GATLERPKTLSPGKN [Peptide 9019.0102], the results for the concentration for half-maximal inhibition (IC50) with HLA-DR DRB1*1302 [10], with HLA-DR DRB1*0401 [7] and with HLA-DR DRB1*0101 [11] were 5.33 µM, 2.79 µM and 1.81 µM, respectively. SDVWSYGVTVWELMT [9019.0089]: 1.88 µM corresponded to half-maximal inhibition with HLA-DR DRB1*1501 [1] (IC50). In the case of DNSIRPEELLQMELL [Cyclin D1.129], the IC50 with HLA-DR DRB1*1501 [3] was 4.76 µM.

On to ITGYLYISAWPDSLP [9019.0050], for which the 50% inhibitory concentration (IC50) in the assay with HLA-DR DRB1*1501 [1] stood at 0.152 µM. As for GHCWGPGPTQCVNCS [9019.0061], the IC50 came to 3.74 µM in the assay with HLA-DR DRB1*0401 [16], 1.91 µM with HLA-DR DRB1*0101 [5] and 6.74 µM with HLA-DR DRB1*0701 [17].

In the assay with HLA-DR DRB1*1501 [1], ILLVVVLGVVFGILI [9019.0068] had a half-maximal inhibitory concentration (IC50) of 7.12 µM. For SDSVILNVLYGPDAP [CEA.123 peptide 9019.0119 (position 226)], the IC50 with HLA-DR DRB1*1501 [4] was 0.351 µM.

Turning to EALLESSLRQAQQNM [Cyclin D1.252], the half-maximal inhibitory concentration (IC50) with HLA-DR DRB1*1501 [3] was 8.18 µM. As for TVGIMIGVLVGVALI [CEA.688 peptide 9019.05], in the assay with HLA-DR DRB1*1501 [4], the IC50 was 7.77 µM. WNLAAMTPHDFIEHF [Cyclin D1.150]: in the assay with HLA-DR DRB1*0101 [12], the half-maximal inhibitory concentration (IC50) was 6.42 µM. Molecule VCGIQNSVSANRSDP [CEA.570 peptide 9012.0135] yielded an IC50 with HLA-DR DRB1*1501 [4] of 8.98 µM. In the case of ICTIDVYMIMVKCWM [Peptide 1622.04], in the assay with HLA-DR DRB1*1501 [6], the IC50 was 2.65 µM.

The term IC50 denotes the concentration at which inhibition is half-maximal.
